We go through 2 sequences from patent US20050142582.

This data set deals with USF1 (upstream stimulatory factor) (Ciona intestinalis). As to the kind of experiment: SPR. Particulars: binding good, dimer.
Chain of USF1 (upstream stimulatory factor) (Ciona intestinalis) (chain, as listed by the source): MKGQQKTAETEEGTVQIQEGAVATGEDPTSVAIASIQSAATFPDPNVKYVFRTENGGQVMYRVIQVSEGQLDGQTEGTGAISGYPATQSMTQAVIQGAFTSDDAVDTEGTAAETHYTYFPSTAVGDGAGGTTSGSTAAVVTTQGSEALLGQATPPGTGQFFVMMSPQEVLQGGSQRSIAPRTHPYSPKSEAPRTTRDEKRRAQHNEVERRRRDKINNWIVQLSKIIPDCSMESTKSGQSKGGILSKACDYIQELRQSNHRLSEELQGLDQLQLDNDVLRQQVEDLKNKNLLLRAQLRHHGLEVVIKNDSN

As to “GGTATTGAGGGTCGCATCGGCAAAAAGGATTGCCCAGGTCTGCTGTCTAGCCGGATTCGATGGCTCTAACTCTCCTCT [6H1]”, the Kd (as a rule, the free concentration of one partner at which half of the binding sites on the other are occupied at equilibrium, for simple one-to-one binding) was found to be 36 nM. That is a double-digit nanomolar value.

As for “GGTATTGAGGGTCGCATCGGCTTCAGGTTGGTCTGGTTGGGTTTGGCTCCTGTGTACGGATGGCTCTAACTCTCCTCT [6H5]”, the Kd turned out to be 176 nM.
